B1: mAb2_SL50K (antibody, V domains shown)
VH: EVQLVESGGGLVQPGGSLRLSCAASGFTISDYWIHWVRQAPGKGLEWVAGITPAGGYTYYADSVKGRFTISADTSKNTAYLQMNSLRAEDTAVYYCARFVFFLPYAMDYWGQGTLVTVSS
VL: DIQMTQSPSSLSASVGDRVTITCRASQDVSTAVAWYQQKPGKAPKLLIYKASFLYSGVPSRFSGSGSGTDFTLTISSLQPEDFATYYCQQSYTTPPTFGQGTKVEIK
notes: as the heavy chain variable region of m1 (PDB 2FJF); constant regions of an IgG1 isotype, already in the expression vector; as the light chain variable region of m1 (PDB 2FJF), with the stated change; light chain constant region from the expression vector; IgG1; also called S50K in the light chain; source: CHO K1, transiently transfected, purified (protein A)
B2: mAb2_VH100R (antibody, V domains shown)
VH: EVQLVESGGGLVQPGGSLRLSCAASGFTISDYWIHWVRQAPGKGLEWVAGITPAGGYTYYADSVKGRFTISADTSKNTAYLQMNSLRAEDTAVYYCARFRFFLPYAMDYWGQGTLVTVSS
VL: DIQMTQSPSSLSASVGDRVTITCRASQDVSTAVAWYQQKPGKAPKLLIYSASFLYSGVPSRFSGSGSGTDFTLTISSLQPEDFATYYCQQSYTTPPTFGQGTKVEIK
notes: as the heavy chain variable region of m1 (PDB 2FJF), with the stated change; constant regions of an IgG1 isotype, already in the expression vector; as the light chain variable region of m1 (PDB 2FJF); light chain constant region from the expression vector; IgG1; source: CHO K1, transiently transfected, purified (protein A)
B3: mAb2_SL52R_SH21R_SH85R_FH101P (antibody, V domains shown)
VH: EVQLVESGGGLVQPGGSLRLRCAASGFTISDYWIHWVRQAPGKGLEWVAGITPAGGYTYYADSVKGRFTISADTSKNTAYLQMNRLRAEDTAVYYCARFVPFLPYAMDYWGQGTLVTVSS
VL: DIQMTQSPSSLSASVGDRVTITCRASQDVSTAVAWYQQKPGKAPKLLIYSARFLYSGVPSRFSGSGSGTDFTLTISSLQPEDFATYYCQQSYTTPPTFGQGTKVEIK
notes: as the heavy chain variable region of m1 (PDB 2FJF), with the stated changes; constant regions of an IgG1 isotype, already in the expression vector; as the light chain variable region of m1 (PDB 2FJF), with the stated change; light chain constant region from the expression vector; IgG1; also called mAb2 FH101P SL52R SH21R SH85R; source: CHO K1, transiently transfected, purified (protein A)
B4: mAb2_SL50K_FH101P (antibody, V domains shown)
VH: EVQLVESGGGLVQPGGSLRLSCAASGFTISDYWIHWVRQAPGKGLEWVAGITPAGGYTYYADSVKGRFTISADTSKNTAYLQMNSLRAEDTAVYYCARFVPFLPYAMDYWGQGTLVTVSS
VL: DIQMTQSPSSLSASVGDRVTITCRASQDVSTAVAWYQQKPGKAPKLLIYKASFLYSGVPSRFSGSGSGTDFTLTISSLQPEDFATYYCQQSYTTPPTFGQGTKVEIK
notes: as the heavy chain variable region of m1 (PDB 2FJF), with the stated change; constant regions of an IgG1 isotype, already in the expression vector; as the light chain variable region of m1 (PDB 2FJF), with the stated change; light chain constant region from the expression vector; IgG1; also called mAb2 FH101P SL50K; variant 8; source: CHO K1, transiently transfected, purified (protein A)
B5: mAb2_SL50D (antibody, V domains shown)
VH: EVQLVESGGGLVQPGGSLRLSCAASGFTISDYWIHWVRQAPGKGLEWVAGITPAGGYTYYADSVKGRFTISADTSKNTAYLQMNSLRAEDTAVYYCARFVFFLPYAMDYWGQGTLVTVSS
VL: DIQMTQSPSSLSASVGDRVTITCRASQDVSTAVAWYQQKPGKAPKLLIYDASFLYSGVPSRFSGSGSGTDFTLTISSLQPEDFATYYCQQSYTTPPTFGQGTKVEIK
notes: as the heavy chain variable region of m1 (PDB 2FJF); constant regions of an IgG1 isotype, already in the expression vector; as the light chain variable region of m1 (PDB 2FJF), with the stated change; light chain constant region from the expression vector; IgG1; source: CHO K1, transiently transfected, purified (protein A)
B6: mAb2_SL50K_SH21R_SH85R_FH101P (antibody, V domains shown)
VH: EVQLVESGGGLVQPGGSLRLRCAASGFTISDYWIHWVRQAPGKGLEWVAGITPAGGYTYYADSVKGRFTISADTSKNTAYLQMNRLRAEDTAVYYCARFVPFLPYAMDYWGQGTLVTVSS
VL: DIQMTQSPSSLSASVGDRVTITCRASQDVSTAVAWYQQKPGKAPKLLIYKASFLYSGVPSRFSGSGSGTDFTLTISSLQPEDFATYYCQQSYTTPPTFGQGTKVEIK
notes: as the heavy chain variable region of m1 (PDB 2FJF), with the stated changes; constant regions of an IgG1 isotype, already in the expression vector; as the light chain variable region of m1 (PDB 2FJF), with the stated change; light chain constant region from the expression vector; IgG1; also called mAb2 FH101P SL50K SH21R SH85R; source: CHO K1, transiently transfected, purified (protein A)
B7: mAb2_FH101P (antibody, V domains shown)
VH: EVQLVESGGGLVQPGGSLRLSCAASGFTISDYWIHWVRQAPGKGLEWVAGITPAGGYTYYADSVKGRFTISADTSKNTAYLQMNSLRAEDTAVYYCARFVPFLPYAMDYWGQGTLVTVSS
VL: DIQMTQSPSSLSASVGDRVTITCRASQDVSTAVAWYQQKPGKAPKLLIYSASFLYSGVPSRFSGSGSGTDFTLTISSLQPEDFATYYCQQSYTTPPTFGQGTKVEIK
notes: as for B2
B8: mAb2_SL52R_FH101P (antibody, V domains shown)
VH: EVQLVESGGGLVQPGGSLRLSCAASGFTISDYWIHWVRQAPGKGLEWVAGITPAGGYTYYADSVKGRFTISADTSKNTAYLQMNSLRAEDTAVYYCARFVPFLPYAMDYWGQGTLVTVSS
VL: DIQMTQSPSSLSASVGDRVTITCRASQDVSTAVAWYQQKPGKAPKLLIYSARFLYSGVPSRFSGSGSGTDFTLTISSLQPEDFATYYCQQSYTTPPTFGQGTKVEIK
notes: as the heavy chain variable region of m1 (PDB 2FJF), with the stated change; constant regions of an IgG1 isotype, already in the expression vector; as the light chain variable region of m1 (PDB 2FJF), with the stated change; light chain constant region from the expression vector; IgG1; also called mAb2 FH101P SL52R; source: CHO K1, transiently transfected, purified (protein A)
B9: mAb2_SL50K_SH21R_SH85R (antibody, V domains shown)
VH: EVQLVESGGGLVQPGGSLRLRCAASGFTISDYWIHWVRQAPGKGLEWVAGITPAGGYTYYADSVKGRFTISADTSKNTAYLQMNRLRAEDTAVYYCARFVFFLPYAMDYWGQGTLVTVSS
VL: DIQMTQSPSSLSASVGDRVTITCRASQDVSTAVAWYQQKPGKAPKLLIYKASFLYSGVPSRFSGSGSGTDFTLTISSLQPEDFATYYCQQSYTTPPTFGQGTKVEIK
notes: as the heavy chain variable region of m1 (PDB 2FJF), with the stated changes; constant regions of an IgG1 isotype, already in the expression vector; as the light chain variable region of m1 (PDB 2FJF), with the stated change; light chain constant region from the expression vector; IgG1; also called Variant 7; source: CHO K1, transiently transfected, purified (protein A)

In this experiment the target is T1, recombinant human Vascular Endothelial Growth Factor a (Homo sapiens, UniProt P15692-4, fluorescently labeled with Alexa-647).
T1 construct: human VEGFa, UniProt ID P15692, aa 27-191 as printed; the isoform is my reading of the limits 27-191; also called rhVEGFa; recombinant human VEGFa; source: recombinant
T1 sequence (P15692 other isoform, or with tags, fused parts or gaps): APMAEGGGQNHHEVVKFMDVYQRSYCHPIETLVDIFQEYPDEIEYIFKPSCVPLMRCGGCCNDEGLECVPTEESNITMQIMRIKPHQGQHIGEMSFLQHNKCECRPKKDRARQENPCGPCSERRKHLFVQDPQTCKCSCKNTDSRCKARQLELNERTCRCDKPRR
Nature of the experiment: MST; Alexa-647-labelled rhVEGFa constant at 1 nM in solution, mAb2 WT or variants in varying concentrations; 295 K; 25 mM sodium citrate pH 6.0, 125 mM NaCl, 0.05% Tween 20; triplicates; NanoTemper Monolith NT.115. The note with it: both partners purified.
Consider B1, for which the Kd amounted to 8.3 ± 1.4 nM.
As to B2, the binding result was “no binding”.
Turning to B3, the binding result is given as “no binding”.
In the case of B4, the binding result is given as “no binding”.
For B5, the Kd was 4.4 ± 1.3 nM.
On to B6, for which the binding result is listed as “no binding”.
In the case of B7, the binding result is recorded as “no binding”.
Still for that read-out and setting: to B8 belongs “no binding”.
For the molecule B9, the Kd was 57.1 ± 6.2 nM.

One may read the Kd as the free concentration of one partner at which half of the binding sites on the other are occupied at equilibrium, for simple one-to-one binding.

The record behind these values is paper PMC5397608 (Journal of Molecular Biology, 2017).
